Targets include Avidin-pCBMA109, P02701; Avidin-pCBMA170, P02701; Avidin-pCBMA121, P02701; Avidin-pCBMA232, P02701; Native avidin, P02701; Avidin-pCBMA58, P02701; Avidin-pCBMA182, P02701; Avidin-pCBMA56, P02701; Avidin-pCBMA152, P02701.
Common to all, as to experiment: stopped-flow tryptophan fluorescence, avidin 0.5 µM, biotin-protein 5.0 µM

Avidin-pCBMA152, P02701, sequence (P02701 25-152): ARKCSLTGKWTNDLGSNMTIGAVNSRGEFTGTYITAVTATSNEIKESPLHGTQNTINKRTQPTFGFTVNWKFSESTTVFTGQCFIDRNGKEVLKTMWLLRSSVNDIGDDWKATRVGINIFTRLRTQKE
Native avidin, P02701, sequence (P02701 25-152): as above
Avidin-pCBMA182, P02701, sequence (P02701 25-152): as above
Avidin-pCBMA58, P02701, sequence (P02701 25-152): as above
Avidin-pCBMA170, P02701, sequence (P02701 25-152): as above
Avidin-pCBMA232, P02701, sequence (P02701 25-152): as above
Avidin-pCBMA121, P02701, sequence (P02701 25-152): as above
Avidin-pCBMA56, P02701, sequence (P02701 25-152): as above
Avidin-pCBMA109, P02701, sequence (P02701 25-152): as above

B1: Biotin-HRP (protein)
chain: QLTPTFYDNSCPNVSNIVRDTIVNELRSDPRIAASILRLHFHDCFVNGCDASILLDNTTSFRTEKDAFGNANSARGFPVIDRMKAAVESACPRTVSCADLLTIAAQQSVTLAGGPSWRVPLGRRDSLQAFLDLANANLPAPFFTLPQLKDSFRNVGLNRSSDLVALSGGHTFGKNQCRFIMDRLYNFSNTGLPDPTLNTTYLQTLRGLCPLNGNLSALVDFDLRTPTIFDNKYYVNLEEQKGLIQSDQELFSSPNATDTIPLVRSFANSTQTFFNAFVEAMDRMGNITPLTGTQGQIRLNCRVVNSNS
For the protein B1, the k (kobs, observed first-order rate constant) with Avidin-pCBMA109, P02701 worked out at 0.026 s⁻¹; with Avidin-pCBMA170, P02701 it was 0.209 s⁻¹; with Avidin-pCBMA121, P02701 it was 0.218 s⁻¹; in the data set with Avidin-pCBMA232, P02701, 0.196 s⁻¹; with Native avidin, P02701 it was 5.03 s⁻¹; with Avidin-pCBMA58, P02701, 0.028 s⁻¹. Also, the k (kobs, observed first-order rate constant) in the data set with Avidin-pCBMA182, P02701 was found to be 0.025 s⁻¹; with Avidin-pCBMA56, P02701, 0.261 s⁻¹; in the data set with Avidin-pCBMA152, P02701 it was 0.025 s⁻¹.

The record behind these values is patent US20210388337.
